Measured values from article PMC5393062.

Columns and labels:
Experiment in all cases: fluorescence polarization
[1] = target: pNOB8 ParA(R52E-K221E) (Sulfolobus NOB8H2, plasmid pNOB8) (UniProt O93708); details: FP: 25 mM Tris-HCl pH 7.5, 100 mM NaCl, 1 nM 5'-fluorescein DNA, with ATP/AMPPNP, ADP or no nucleotide; temperature not stated. Crystals: 20% PEG 4000, 10% …
[2] = target: pNOB8 ParA(R52E-K218E) (Sulfolobus NOB8H2, plasmid pNOB8) (UniProt O93708); details: FP: 25 mM Tris-HCl pH 7.5, 100 mM NaCl, 1 nM 5'-fluorescein DNA, with ATP/AMPPNP, ADP or no nucleotide; temperature not stated. Crystals: 20% PEG 4000, 10% …
[3] = target: pNOB8 ParA(K270E) (Sulfolobus NOB8H2, plasmid pNOB8) (UniProt O93708); details: FP: 25 mM Tris-HCl pH 7.5, 100 mM NaCl, 1 nM 5'-fluorescein DNA, with ATP/AMPPNP, ADP or no nucleotide; temperature not stated. Crystals: 20% PEG 4000, 10% …
[4] = target: pNOB8 ParA (Sulfolobus NOB8H2, plasmid pNOB8) (UniProt O93708); details: FP: 25 mM Tris-HCl pH 7.5, 100 mM NaCl, 1 nM 5'-fluorescein DNA, with ATP/AMPPNP, ADP or no nucleotide, temperature not stated. Crystals: 20% PEG 4000, 10% …
[5] = target: pNOB8 ParA(K58E) (Sulfolobus NOB8H2, plasmid pNOB8) (UniProt O93708); details: FP: 25 mM Tris-HCl pH 7.5, 100 mM NaCl, 1 nM 5'-fluorescein DNA, with ATP/AMPPNP, ADP or no nucleotide; temperature not stated. Crystals: 20% PEG 4000, 10% …

In the case of “TGACGCCGGCGTCA (double strand) [14mer nsDNA, FP probe]”, the Kd [1] is reported as 5.93 µM, the Kd [2] is reported as 3.19 µM and the Kd [3] is reported as 0.3 µM. The Kd ([4]; AMPPNP, stoichiometry ~1 ParA dimer to 2 duplexes at 1 uM DNA) was 0.116 µM, the Kd [4] was 0.12 µM and the Kd [5] was 0.274 µM.
